Like-named read-outs stand apart in the source and are kept apart here.
T1: human CD20 (HEK293A/human CD20 cells) (human, UniProt P11836 1-297)
T1 sequence: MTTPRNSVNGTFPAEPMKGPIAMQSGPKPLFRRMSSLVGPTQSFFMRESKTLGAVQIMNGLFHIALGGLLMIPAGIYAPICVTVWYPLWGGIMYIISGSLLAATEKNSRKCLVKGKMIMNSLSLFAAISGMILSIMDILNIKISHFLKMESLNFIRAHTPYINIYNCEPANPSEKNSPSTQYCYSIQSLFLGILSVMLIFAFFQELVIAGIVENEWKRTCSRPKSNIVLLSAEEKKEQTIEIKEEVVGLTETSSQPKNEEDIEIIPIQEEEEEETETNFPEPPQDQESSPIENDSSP

T2: monkey CD20 (HEK293A/monkey CD20 cells) (monkey, UniProt P11836 1-297 (human entry))
T2 construct: Stably expressed on HEK293A cells; also called cynomolgus CD20
T2 chain: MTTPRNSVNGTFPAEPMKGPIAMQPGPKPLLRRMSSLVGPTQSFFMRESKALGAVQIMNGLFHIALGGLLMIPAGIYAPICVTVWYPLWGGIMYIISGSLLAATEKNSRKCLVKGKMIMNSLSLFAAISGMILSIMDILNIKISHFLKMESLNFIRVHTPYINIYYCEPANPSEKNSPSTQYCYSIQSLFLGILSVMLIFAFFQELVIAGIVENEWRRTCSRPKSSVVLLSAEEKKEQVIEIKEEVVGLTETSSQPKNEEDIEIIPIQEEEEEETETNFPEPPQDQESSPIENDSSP

T3: monkey CD3ε-his (Cat #: 90047-C08H, SinoBiological, China) (monkey, UniProt Q95LI5 22-117)
T3 construct: Bought protein; also called monkey CD3ε protein; recombinant monkey CD3ε
T3 sequence: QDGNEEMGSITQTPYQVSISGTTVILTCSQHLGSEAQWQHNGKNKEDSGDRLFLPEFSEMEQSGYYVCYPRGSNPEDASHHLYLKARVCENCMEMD


What was measured:
[1] = biological target: T4, human CD3ε-his (Cat #:10977-H08s, SinoBiological, China) (human, UniProt P07766 23-126); assay: ELISA: plate coated with human CD3ε-his (hCD3ε-his), antibody titrated, HRP goat anti-human IgG, OD450
T4 construct: Bought protein; also called human CD3ε protein; recombinant human CD3ε; not shown: his tag

[2] = biological target: T1, human CD20 (HEK293A/human CD20 cells); assay: cell-based or functional assay
[3] = biological target: T2, monkey CD20 (HEK293A/monkey CD20 cells); assay: FACS on HEK293A/monkey CD20 (CynoCD20) cells, PE anti-human IgG secondary antibody, MFI
[4] = biological target: T4, human CD3ε-his (Cat #:10977-H08s, …); assay: SPR (BIAcore 8K); human CD3ε-his coupled to CM5 chip, antibody injected
[5] = biological target: T1, human CD20 (HEK293A/human CD20 cells); assay: FACS on HEK293A/human CD20 cells, PE anti-human IgG secondary antibody, MFI
[6] = biological target: T4, human CD3ε-his (Cat #:10977-H08s, …); assay: SPR (BIAcore 8K); human CD3ε-his coupled to CM5 chip, antibody injected; remark: listed apart in the source
[7] = biological target: T4, human CD3ε-his (Cat #:10977-H08s, …); assay: ELISA: plate coated with human CD3ε-his, antibody titrated, HRP goat anti-human IgG, OD450
[8] = biological target: T3, monkey CD3ε-his (Cat #: 90047-C08H, …); assay: ELISA: plate coated with monkey CD3ε-his, antibody titrated, HRP goat anti-human IgG, OD450
[9] = biological target: T5, human TCR/CD3 complex on cell surfaces (primary human CD4+ T cells; Jurkat cells; human PBMCs) (human, UniProt P07766 23-207); assay: FACS on primary human T cells, PE goat anti-human IgG, MFI
T5 construct: whole, on cells; Native complex on cells; the γ, δ, ζ and TCR chains of the complex are present on the cells too; also called human CD3 complexes on cell surfaces; human CD3+ T cells

[10] = biological target: T3, monkey CD3ε-his (Cat #: 90047-C08H, …); assay: ELISA: plate coated with monkey CD3ε-his, antibody titrated, HRP goat anti-human IgG, OD 450
[11] = biological target: T4, human CD3ε-his (Cat #:10977-H08s, …); assay: ELISA: plate coated with human CD3ε-his, antibody titrated, HRP goat anti-human IgG, OD 450
[12] = biological target: T3, monkey CD3ε-his (Cat #: 90047-C08H, …); assay: ELISA: plate coated with monkey CD3ε-his, antibody titrated, HRP goat anti-human IgG, OD 450; remark: listed apart in the source
[13] = biological target: T4, human CD3ε-his (Cat #:10977-H08s, …); assay: ELISA: plate coated with human CD3ε-his, antibody titrated, HRP goat anti-human IgG, OD 450; remark: listed apart in the source
[14] = biological target: T5, human TCR/CD3 complex on cell surfaces …; assay: FACS on primary human T cells, PE goat anti-human IgG, MFI; remark: listed apart in the source
[15] = biological target: T5, human TCR/CD3 complex on cell surfaces …; assay: as above; remark: listed apart in the source

T4 sequence (P07766 23-126 limits assumed): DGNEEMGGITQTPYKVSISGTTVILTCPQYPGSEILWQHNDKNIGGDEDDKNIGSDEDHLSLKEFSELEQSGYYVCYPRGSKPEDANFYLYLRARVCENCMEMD
T5 sequence (P07766 23-207, one chain of several): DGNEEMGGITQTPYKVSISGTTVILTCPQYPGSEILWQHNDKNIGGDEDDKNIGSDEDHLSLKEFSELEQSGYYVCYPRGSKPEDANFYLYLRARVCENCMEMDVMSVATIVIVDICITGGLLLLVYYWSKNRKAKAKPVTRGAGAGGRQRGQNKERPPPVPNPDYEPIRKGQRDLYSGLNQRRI

Row | EC50 (read off the curve) [7] [µg/mL] | EC50 (read off the curve) [8] [µg/mL] | EC50 (read off the curve) [9] [µg/mL] | EC50 (read off the curve) [11] [µg/mL] | EC50 (read off the curve) [12] [µg/mL] | EC50 (read off the curve) [13] [µg/mL] | EC50 (read off the curve) [14] [µg/mL] | EC50 (read off the curve) [15] [µg/mL] | Binder | further results
1 | – | – | – | – | – | – | – | – | MBS303-1 (bispecific antibody against CD3 and CD20, MIL220 + MIL221-1) (bispecific antibody, human IgG1, kappa, lambda, L234A L235A, N297A, CD20:CD3 = 2:1) heavy 1: QVQLVQSGAEVKKPGSSVKVSCKASGYAFSYSWINWVRQAPGQGLEWMGRIFPGDGDTDYNGKFKGRVTITADKSTSTAYMELSSLRSEDTAVYYCARNVFDGYWLVYWGQGTLVTVSSASTKGPSVFPLAPSSKSTSGGTAALGCLVKDYFPEPVTVSWNSGALTSGVHTFPAVLQSSGLYSLSSVVTVPSSSLGTQTYICNVNHKPSNTKVDKKVEPKSCDKTHTCPPCPAPEAAGGPSVFLFPPKPKDTLMISRTPEVTCVVVDVSHEDPEVKFNWYVDGVEVHNAKTKPREEQYASTYRVVSVLTVLHQDWLNGKEYKCKVSNKALPAPIEKTISKAKGQPREPQVYTLPPSREEMTKNQVSLSCAVKGFYPSDIAVEWESNGQPENNYKTTPPVLDSDGSFFLVSKLTVDKSRWQQGNVFSCSVMHEALHNHYTQKSLSLSPGK light 1: DIVMTQTPLSLPVTPGEPASISCRSSKSLLHSNGITYLYWYLQKPGQSPQLLIYQMSNLVSGVPDRFSGSGSGTDFTLKISRVEAEDVGVYYCAQNLELPYTFGGGTKVEIKRTVAAPSVFIFPPSDEQLKSGTASVVCLLNNFYPREAKVQWKVDNALQSGNSQESVTEQDSKDSTYSLSSTLTLSKADYEKHKVYACEVTHQGLSSPVTKSFNRGEC heavy 2: QVQLVQSGAEVKKPGSSVKVSCKASGYAFSYSWINWVRQAPGQGLEWMGRIFPGDGDTDYNGKFKGRVTITADKSTSTAYMELSSLRSEDTAVYYCARNVFDGYWLVYWGQGTLVTVSSGGGGSGGGGSGGGGSDIVMTQTPLSLPVTPGEPASISCRSSKSLLHSNGITYLYWYLQKPGQSPQLLIYQMSNLVSGVPDRFSGSGSGTDFTLKISRVEAEDVGVYYCAQNLELPYTFGGGTKVEIKGGGGSGGGGSGGGGSEVQLLESGGGLVQPGGSLRLSCAASGFTFNTYAMNWVRQAPGKGLEWVARIRSKYNNYATYYAISVKDRFTISRDNSKNTLYLQMNSLRAEDTAVYYCVKHGNFGNSYLSYWAYWGQGTLVTVSSASTKGPSVFPLAPSSKSTSGGTAALGCLVKDYFPEPVTVSWNSGALTSGVHTFPAVLQSSGLYSLSSVVTVPSSSLGTQTYICNVNHKPSNTKVDKKVEPKSCDKTHTCPPCPAPEAAGGPSVFLFPPKPKDTLMISRTPEVTCVVVDVSHEDPEVKFNWYVDGVEVHNAKTKPREEQYASTYRVVSVLTVLHQDWLNGKEYKCKVSNKALPAPIEKTISKAKGQPREPQVYTLPPSREEMTKNQVSLWCLVKGFYPSDIAVEWESNGQPENNYKTTPPVLDSDGSFFLYSKLTVDKSRWQQGNVFSCSVMHEALHNHYTQKSLSLSPGK light 2: QAVVTQEPSLTVSPGGTVTLTCQSSTGAVTTNNYANWVQQKPGHAFRGLIGGTKQRAPGVPARFSGSLLGGKAALTLSGVQPEDEAEYYCVLWYSNLWVFGGGTKLTVLGQPKAAPSVTLFPPSSEELQANKATLVCLISDFYPGAVTVAWKADSSPVKAGVETTTPSKQSNNKYAASSYLSLTPEQWKSHRSYSCQVTHEGSTVEKTVAPT | EC50 (read off the curve) [1]: ~0.06 µg/mL; EC50 of killing of HEK293A/hCD20 cells by T cells, MBS303-1 alone [2]: 0.0076 µg/mL; EC50 of killing of HEK293A/hCD20 cells by T cells, MBS303-1 with 1 µg/ml MIL62 [2]: 0.0032 µg/mL; binding result [3]: binds; Kd [4]: 1.99 nM; EC50 (read off the curve) [5]: ~0.04 µg/mL
2 | ~60 | ~60 | ~200 | ~0.05 | – | – | – | – | chimeric antibody 19-15 (full length, human IgG1) (antibody, V domains shown) VH: EVKLLESGGGLVQPKGSLKLSCAASGFTFNTYAMNWVRQAPGKGLEWVARIRSKYNNYATYYAISVKDRFTISRDDSQSILYLQMNNLKTEDTAMYYCVRHGNFGNSYLSYWAYWGQGTLVTVSA VL: QAVVTQESALTTSPGETVTLTCQSSTGAVTTNNYANWVQEKPDHLFTGLIGGTKQRAPGVPARFSGSLIGDKAALTITGAQTEDEAIYFCVLWYSNLWVFGGGTKLTVLG | kon [6]: 229000 M⁻¹ s⁻¹; EC50 (read off the curve) [10]: ~0.04 µg/mL
3 | – | – | – | – | ~0.1 | ~0.1 | ~0.1 | – | humanized anti-CD3 antibody 26H2L3 (human IgG1) (antibody, V domains shown) VH: EVQLLESGGGLVQPGGSLRLSCAASGFTFNTYAMNWVRQAPGKGLEWVARIRSKYNNYATYYADSVKDRFTISRDNSKNTLYLQMNSLRAEDTAVYYCVKHGNFGNSYISWWAYWGQGTLVTVSS VL: QAVVTQEPSLTVSPGGTVTLTCKSSTGAVTTSNYANWVQQKPGHAFRGLIGGTNLHAPGVPARFSGSLLGGKAALTLSGVQPEDEAEYYCALWYSNLWVFGGGTKLTVLG | –
4 | ~100 | ~100 | – | – | – | – | – | ~0.2 | humanized anti-CD3 antibody 15H3L2 (human IgG1) (antibody, V domains shown) VH: EVQLLESGGGLVQPGGSLRLSCAASGFTFNTYAMNWVRQAPGKGLEWVARIRSKYNNYATYYAISVKDRFTISRDDSKNTLYLQMNSLRAEDTAMYYCVRHGNFGNSYLSYWAYWGQGTLVTVSS VL: QTVVTQEPSLTVSPGGTVTLTCQSSTGAVTTNNYANWVQQKPGQAPRALIGGTKQRAPGTPARFSGSLLGGKAALTLSGVQPEDEAEYYCVLWYSNLWVFGGGTKLTVLG | –
5 | – | – | ~700 | ~0.05 | ~0.1 | ~0.1 | ~0.2 | – | chimeric antibody 19-26 (full length, human IgG1) (antibody, V domains shown) VH: EVKLLESGGGLVQPKGSLKLSCAASGFTFNTYAMNWVRQAPGKGLEWVARIRSKYNNYATYYADSVKDRFTISRDDSQSILYLQMNNLKTEDTAMYYCVRHGNFGNSYISWWAYWGQGTLVTVSA VL: QAVVTQESALTTSPGETVTLTCKSSTGAVTTSNYANWVQEKPDHLFTGLIGGTNLHAPGVPARFSGSLIGDKAALTITGAQTEDEAIYFCALWYSNLWVFGGGTKLTVLG | –
6 | ~300 | ~300 | – | – | – | – | – | ~0.2 | humanized anti-CD3 antibody 15H3L3 (human IgG1, light constant region SEQ ID NO: 23) (antibody) heavy: not shown light: QAVVTQEPSLTVSPGGTVTLTCQSSTGAVTTNNYANWVQQKPGHAFRGLIGGTKQRAPGVPARFSGSLLGGKAALTLSGVQPEDEAEYYCVLWYSNLWVFGGGTKLTVLGQPKAAPSVTLFPPSSEELQANKATLVCLISDFYPGAVTVAWKADSSPVKAGVETTTPSKQSNNKYAASSYLSLTPEQWKSHRSYSCQVTHEGSTVEKTVAPTECS | –

Source: patent US20220195043A1 (BEIJING MABWORKS BIOTECH, published 2022)
